Test results published in doi:10.1101/2021.07.07.451531 (bioRxiv, 2021).
One block for each molecule: values may come before it.

Legend:
[1] = target: biotinylated iC3b; experiment: SPR
[2] = target: αM subunit of the αMβ2 headpiece (human, UniProt P11215); experiment: crystal structure
[3] = target: recombinant human αI domain of αMβ2 (human, UniProt P11215); experiment: SEC
recombinant human αI domain of αMβ2, sequence (P11215 148-336): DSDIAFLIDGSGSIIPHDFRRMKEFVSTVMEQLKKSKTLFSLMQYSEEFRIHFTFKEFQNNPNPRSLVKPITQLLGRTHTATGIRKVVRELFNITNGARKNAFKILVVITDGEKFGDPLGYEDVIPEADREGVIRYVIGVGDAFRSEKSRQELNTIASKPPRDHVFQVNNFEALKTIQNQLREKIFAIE

αM subunit of the αMβ2 headpiece, sequence (P11215 17-770): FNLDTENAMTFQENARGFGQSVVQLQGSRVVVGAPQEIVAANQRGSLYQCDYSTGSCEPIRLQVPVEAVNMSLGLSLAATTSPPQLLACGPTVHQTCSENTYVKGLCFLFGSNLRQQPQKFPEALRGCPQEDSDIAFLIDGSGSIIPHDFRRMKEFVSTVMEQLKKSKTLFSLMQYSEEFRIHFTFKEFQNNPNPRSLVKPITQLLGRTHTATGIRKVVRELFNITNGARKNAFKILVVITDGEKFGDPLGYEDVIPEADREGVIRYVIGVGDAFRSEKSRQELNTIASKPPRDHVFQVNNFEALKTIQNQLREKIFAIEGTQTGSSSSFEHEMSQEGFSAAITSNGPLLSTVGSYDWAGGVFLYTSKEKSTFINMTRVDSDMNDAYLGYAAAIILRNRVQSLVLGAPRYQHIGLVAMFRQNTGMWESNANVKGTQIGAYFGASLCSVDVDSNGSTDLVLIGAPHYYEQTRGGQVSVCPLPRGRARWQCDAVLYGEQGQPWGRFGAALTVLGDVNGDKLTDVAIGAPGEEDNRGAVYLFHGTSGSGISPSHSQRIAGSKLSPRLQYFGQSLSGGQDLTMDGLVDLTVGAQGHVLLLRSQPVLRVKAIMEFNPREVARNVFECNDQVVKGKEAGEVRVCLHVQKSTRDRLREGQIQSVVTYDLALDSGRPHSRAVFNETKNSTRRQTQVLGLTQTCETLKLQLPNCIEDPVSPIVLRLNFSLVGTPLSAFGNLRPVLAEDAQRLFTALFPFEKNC

Kd [1]: 30 nM
Molecule: αMβ2 headpiece (from UniProt P05107 23-482) (complex)

binding result [2]: binds
binding result [3]: binds
B1: hCD11bNb1 (VHH)
VHH: QVQLVETGGGLVQAGGSLRLSCAASGNINSFNAMGWFRQAPGKQRELVAAITFGGRTNYADSVKGRFTISRDNTKGSVYLQMNSLKPEDTAVYYCAASENNLLTGVWHYWGRGTQVTVSS
